Data published in patent publication US20210171647A1 (WUXI BIOLOGICS SHANGHAI, published 2021).

What was measured:
Assay in all cases: ELISA, antibody coated, OX40-ECD.His mutant supernatant; relative to silent alanine substitutions;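 also: captured OX40 mutant protein detected with HRP-labelled anti-His antibody, absorbance read-out, scaled to the mean signal of control mutants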
human OX40-ECD.His D168A = target: T1, human OX40-ECD.His D168A (human, UniProt P43489 29-214)
T1 construct: extracellular domain; not shown: C-terminal His-tag
T1 sequence (looked up): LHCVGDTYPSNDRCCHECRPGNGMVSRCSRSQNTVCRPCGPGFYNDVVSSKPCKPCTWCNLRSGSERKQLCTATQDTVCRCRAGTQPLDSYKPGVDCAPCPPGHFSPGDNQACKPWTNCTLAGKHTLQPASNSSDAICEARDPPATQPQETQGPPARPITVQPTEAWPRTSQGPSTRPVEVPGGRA

human OX40-ECD.His V75A = target: T2, human OX40-ECD.His V75A (human, UniProt P43489 29-214)
T2 construct: extracellular domain; not shown: C-terminal His-tag
T2 sequence (looked up): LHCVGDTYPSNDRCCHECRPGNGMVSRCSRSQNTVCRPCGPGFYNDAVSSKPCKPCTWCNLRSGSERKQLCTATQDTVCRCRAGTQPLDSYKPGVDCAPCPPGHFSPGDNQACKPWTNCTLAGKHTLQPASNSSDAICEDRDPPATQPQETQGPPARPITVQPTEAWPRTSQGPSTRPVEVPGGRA

human OX40-ECD.His L29A = target: T3, human OX40-ECD.His L29A (human, UniProt P43489 29-214)
T3 construct: extracellular domain; not shown: C-terminal His-tag
T3 sequence (looked up): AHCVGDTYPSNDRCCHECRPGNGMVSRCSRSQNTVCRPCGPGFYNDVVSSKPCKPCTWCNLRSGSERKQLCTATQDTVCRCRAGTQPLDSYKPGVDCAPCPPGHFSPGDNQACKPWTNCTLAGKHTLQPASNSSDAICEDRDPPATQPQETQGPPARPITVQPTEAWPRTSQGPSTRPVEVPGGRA

human OX40-ECD.His A158G = target: T4, human OX40-ECD.His A158G (human, UniProt P43489 29-214)
T4 construct: extracellular domain; not shown: C-terminal His-tag
T4 sequence (looked up): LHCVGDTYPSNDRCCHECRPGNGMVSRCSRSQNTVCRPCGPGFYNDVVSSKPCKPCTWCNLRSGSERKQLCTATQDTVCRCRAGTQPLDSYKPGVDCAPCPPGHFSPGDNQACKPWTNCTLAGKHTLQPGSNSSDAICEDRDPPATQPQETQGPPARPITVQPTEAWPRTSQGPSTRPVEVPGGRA

human OX40-ECD.His Y72A = target: T5, human OX40-ECD.His Y72A (human, UniProt P43489 29-214)
T5 construct: extracellular domain; not shown: C-terminal His-tag
T5 sequence (looked up): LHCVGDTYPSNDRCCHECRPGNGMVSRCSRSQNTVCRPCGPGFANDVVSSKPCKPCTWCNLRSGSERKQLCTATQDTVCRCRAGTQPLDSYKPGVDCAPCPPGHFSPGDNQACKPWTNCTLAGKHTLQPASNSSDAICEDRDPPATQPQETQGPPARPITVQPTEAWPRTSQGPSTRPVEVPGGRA

human OX40-ECD.His S159A = target: T6, human OX40-ECD.His S159A (human, UniProt P43489 29-214)
T6 construct: extracellular domain; not shown: C-terminal His-tag
T6 sequence (looked up): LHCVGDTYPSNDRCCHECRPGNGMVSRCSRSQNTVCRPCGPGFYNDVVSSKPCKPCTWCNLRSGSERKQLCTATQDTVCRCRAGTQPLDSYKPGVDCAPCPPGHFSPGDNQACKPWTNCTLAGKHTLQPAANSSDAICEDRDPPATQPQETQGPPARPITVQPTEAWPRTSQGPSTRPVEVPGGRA

human OX40-ECD.His G70A = target: T7, human OX40-ECD.His G70A (human, UniProt P43489 29-214)
T7 construct: extracellular domain; not shown: C-terminal His-tag
T7 sequence (looked up): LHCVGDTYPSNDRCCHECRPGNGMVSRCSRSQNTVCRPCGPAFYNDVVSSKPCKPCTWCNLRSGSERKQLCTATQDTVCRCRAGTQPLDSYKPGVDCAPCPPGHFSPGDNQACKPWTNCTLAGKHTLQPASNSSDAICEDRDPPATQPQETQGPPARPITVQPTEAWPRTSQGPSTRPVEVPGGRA

human OX40-ECD.His P83A = target: T8, human OX40-ECD.His P83A (human, UniProt P43489 29-214)
T8 construct: extracellular domain; not shown: C-terminal His-tag
T8 sequence (looked up): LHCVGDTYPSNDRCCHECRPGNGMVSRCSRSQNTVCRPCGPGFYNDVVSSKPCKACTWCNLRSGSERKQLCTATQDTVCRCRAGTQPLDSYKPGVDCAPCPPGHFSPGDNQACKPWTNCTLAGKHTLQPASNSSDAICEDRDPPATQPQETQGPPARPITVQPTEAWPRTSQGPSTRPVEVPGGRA

human OX40-ECD.His P80A = target: T9, human OX40-ECD.His P80A (human, UniProt P43489 29-214)
T9 construct: extracellular domain; not shown: C-terminal His-tag
T9 sequence (looked up): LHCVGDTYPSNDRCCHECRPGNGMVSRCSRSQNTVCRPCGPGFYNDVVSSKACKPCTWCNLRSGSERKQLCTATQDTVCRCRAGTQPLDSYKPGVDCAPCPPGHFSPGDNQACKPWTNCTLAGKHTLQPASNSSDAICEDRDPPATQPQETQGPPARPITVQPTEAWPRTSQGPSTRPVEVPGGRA

human OX40-ECD.His G131A = target: T10, human OX40-ECD.His G131A (human, UniProt P43489 29-214)
T10 construct: extracellular domain; not shown: C-terminal His-tag
T10 sequence (looked up): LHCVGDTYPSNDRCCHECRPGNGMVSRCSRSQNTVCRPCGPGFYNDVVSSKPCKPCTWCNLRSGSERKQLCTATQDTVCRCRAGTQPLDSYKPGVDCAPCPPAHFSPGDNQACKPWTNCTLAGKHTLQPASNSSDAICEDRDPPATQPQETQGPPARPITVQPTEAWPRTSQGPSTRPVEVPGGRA

B1: 1.134.9-u1-IgG1L (antibody, V domains shown)
VH: QVQLQESGPGLVKPSGTLSLTCAVSGGSISSYNWWSWVRQPPGKGLEWIGEIYHGGNTNYNPSLKSRVTMSVDNSKNQFSLKLSSVTAADTAVYYCARAPGDWGGSPYFDFWGQGTLVTVSS
VL: SSELTQDPAVSVALGQTVRITCQGDNLRTYYASWYQQKPGQAPILLIYGRNKRPSGIPDRFSGSSSGNTASLTITGAQAEDEAAYYCNSRDSSGNPVVFGGGTKLTVL
notes: fully human IgG1, lambda
Fold Change (human OX40-ECD.His D168A): 0.983
Fold Change (human OX40-ECD.His V75A): 0.994
Fold Change (human OX40-ECD.His L29A): 1
Fold Change (human OX40-ECD.His A158G): 1.01
Fold Change (human OX40-ECD.His Y72A): 0.384
Fold Change (human OX40-ECD.His S159A): 0.458
Fold Change (human OX40-ECD.His G70A): 0.511
Fold Change (human OX40-ECD.His P83A): 0.918
Fold Change (human OX40-ECD.His P80A): 0.944
Fold Change (human OX40-ECD.His G131A): 0.958
